The record followed here is paper PMC7530888 (Nucleic Acids Research, 2020).

As a reminder, the Kd is a measure of binding affinity in units of concentration. Read a low Kd as tighter binding.

Among the targets are MtbLigA^G621I (M. tuberculosis, UniProt P9WNV1 1-691, G621I); MtbLigA^G639V (M. tuberculosis, UniProt P9WNV1 1-691, G639V); MtbLigA^G614I (M. tuberculosis, UniProt P9WNV1 1-691, G614I).
Experiment in all cases: SPR
On the technique in general: Surface plasmon resonance follows binding to a sensor surface in real time, without labels.

In assay [1] the target is Full-length His-tagged MtbLigA (M. tuberculosis, UniProt P9WNV1 1-691).

B1: GST-tagged MtbXthA (enzyme)
chain: MPDGTIDGGHPQRPASPRLRSPLLRLATWNVNSIRTRLDRVLDWLGRADVDVLAMQETKCPDGQFPALPLFELGYDVAHVGFDQWNGVAIASRVGLDDVRVGFDGQPSWSGKPEVAATTEARALGATCGGIRVWSLYVPNGRALDDPHYTYKLDWLAALRDTAEGWLRDDPAAPIALMGDWNIAPTDDDVWSTEFFAGCTHVSEPERKAFNAIVDAQFTDVVRPFTPGPGVYTYWDYTQLRFPKKQGMRIDFILGSPALAARVMDAQIVREERKGKAPSDHAPVLVDLHAG
Consider B1, for which the Kd in the assay with MtbLigA^G621I worked out at 154 nM; with MtbLigA^G639V, 2770 nM; with MtbLigA^G614I, 781 nM.

B2: GST-tagged MtbXthA^ID (interaction-defective triple mutant) (enzyme)
chain: MPDGTIDGGHPQRPASPRLRSPLLRLATWNVNSIRTRLDRVLDWLGRADVDVLAMQETKCPDGQFPALPLFELGYDVAHVGFDQWNGVAIASRVGLDDVRVGFDGQPSWALAPEVAATTEARALGATCGGIRVWSLYVPNGRALDDPHYTYKLDWLAALRDTAEGWLRDDPAAPIALMGDWNIAPTDDDVWSTEFFAGCTHVSEPERKAFNAIVDAQFTDVVRPFTPGPGVYTYWDYTQLRFPKKQGMRIDFILGSPALAARVMDAQIVREERKGKAPSDHAPVLVDLHAG
Regarding B2, the Kd with MtbLigA^G639V was 9010 nM; in assay [1], 613 nM.
